Data from the supplement of paper PMC7877785.
± gives the uncertainty stated by the source.

Assay: self-splicing fitness, log relative to wild type (ln ratio); higher = more splicing; Tetrahymena group I intron in knt gene, E. coli kanamycin selection, DiMSum; sequences stand for … in CUCUCU…GGAGGGAAAAGUUAUCAGGCAUGCACCUGGUAGCUAGUCUUUAAACCAAUAGAUUGCAUCGGUUUAAAAGGCAAGACCGUCAAAUUGCGGGAAAGGGGUCAACAGCCGUUCAGUACCAAGUCUCAGGGGAAACUUUGAGAUGGCCUUGCAAAGGGUAUGGUAAUAAGCUGACGGACAUGGUCCUAACCACGCAGCCAAGUCCUAAGUCAACAGAUCUUCUGUUGAUAUGGAUGCAGUUCACAGACUAAAUGUCGGUCGGGGAAGAUGUAUUCUUCUCAUAAGAUAUAGUCGGACCUCUCCUUAAUGGGAGCUAGCGGAUGAAGUGAUGCAACACUGGAGCCGCUGGGAACUAAUUUGUAUGCGAAAGUAUAUUGAUUAGUUUUGGAGUACUCGUGGUCG
How it was run: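 Six replicate transformations of E. coli BL21(DE3) with a pET-22b(+) library were grown overnight at 37°C or 30°C. The library randomised all eight P1ex-region intron nucleotides, the intron lying in the knt kanamycin-resistance gene, and plates were LB agar with or without 25 μg/mL kanamycin plus 100 μg/mL carbenicillin, 50 μM IPTG and 0.2% rhamnose. Pooled colonies were amplicon-sequenced on an Illumina HiSeq 2500, and fitness is the DiMSum error-weighted combination of wild-type-normalised replicate fold changes, kanamycin versus none.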

Sequence	self-splicing fitness (ln) (30 °C)	self-splicing fitness (ln) (37 °C)
UGCAAGCAAUAUUACGGGCG	-1.41 ± 0.087	-0.699 ± 0.1
UGCAAGCAAUAUUACGGGUC	-3.11 ± 0.24	-2.11 ± 0.21
UGCAAGCAAUAUUACGGUUC	-2.93 ± 0.19	-1.92 ± 0.17
UGCAAGCAAUAUUACGUAGC	-3.54 ± 0.37	-2.48 ± 0.41
UGCAAGCAAUAUUACGUAUG	-3.05 ± 0.16	-0.321 ± 0.1
UGCAAGCAAUAUUACGUCAA	-2.14 ± 0.098	-0.795 ± 0.073
UGCAAGCAAUAUUACGUCUA	-0.304 ± 0.047	0.371 ± 0.062
UGCAAGCAAUAUUACGUUAG	-2.79 ± 0.14	-2.02 ± 0.15
UGCCAGCAAUAUUACGACAC	-2.55 ± 0.35	-2.68 ± 0.38
UGCCAGCAAUAUUACGAGAU	-3.75 ± 0.26	-2.32 ± 0.21
UGCCAGCAAUAUUACGAGUG	-1.32 ± 0.064	-0.537 ± 0.079
UGCCAGCAAUAUUACGAUAA	-1.88 ± 0.14	-1.19 ± 0.15
UGCCAGCAAUAUUACGCAAU	-4.51 ± 0.2	-2.59 ± 0.13
UGCCAGCAAUAUUACGCACC	-2.19 ± 0.28	-1.32 ± 0.35
UGCCAGCAAUAUUACGCAGC		-2.15 ± 0.42
UGCCAGCAAUAUUACGCGUG	-1.71 ± 0.086	-0.381 ± 0.089
UGCCAGCAAUAUUACGCUGC	-3.85 ± 0.31	-2.47 ± 0.28
UGCCAGCAAUAUUACGCUGG	-3.35 ± 0.24	-2.63 ± 0.28
UGCCAGCAAUAUUACGCUUA	-0.602 ± 0.063	0.791 ± 0.084
UGCCAGCAAUAUUACGGCAG	-2.25 ± 0.093	-1.15 ± 0.1
UGCCAGCAAUAUUACGGCUC	-2.89 ± 0.21	-1.48 ± 0.23
UGCCAGCAAUAUUACGGGAC	-3.51 ± 0.34	-1.95 ± 0.3

Sequence	self-splicing fitness (ln) (30 °C)	self-splicing fitness (ln) (37 °C)
UGCCAGCAAUAUUACGGGAU	-3.16 ± 0.13	-2.44 ± 0.18
UGCCAGCAAUAUUACGGGCA	-3.85 ± 0.27	-2.48 ± 0.24
UGCCAGCAAUAUUACGGGGU	-3.57 ± 0.21	-2.48 ± 0.2
UGCCAGCAAUAUUACGUAAU	-2.36 ± 0.14	-2.16 ± 0.18
UGCCAGCAAUAUUACGUAUC	-3.22 ± 0.19	-3.05 ± 0.28
UGCCAGCAAUAUUACGUCGU	-2.68 ± 0.14	-1.9 ± 0.15
UGCCAGCAAUAUUACGUGUA	-1.26 ± 0.058	-0.551 ± 0.059
UGCCAGCAAUAUUACGUUCU	-2.37 ± 0.17	-1.23 ± 0.14
UGCCAGCAAUAUUACGUUUA	-2.56 ± 0.086	-1.51 ± 0.072
UGCGAGCAAUAUUACGAAAU	-2.85 ± 0.18	-2.65 ± 0.38
UGCGAGCAAUAUUACGAACG	-1.07 ± 0.14	-1.05 ± 0.16
UGCGAGCAAUAUUACGAAGC		-2.3 ± 0.42
UGCGAGCAAUAUUACGAUAU		-2.61 ± 0.36
UGCGAGCAAUAUUACGAUCA	0.0986 ± 0.13	0.104 ± 0.14
UGCGAGCAAUAUUACGAUCG	-2.97 ± 0.27	-1.38 ± 0.17
UGCGAGCAAUAUUACGAUUC	-2.7 ± 0.23	
UGCGAGCAAUAUUACGCACA	-1.31 ± 0.22	-2.16 ± 0.28
UGCGAGCAAUAUUACGCAGC		-1.49 ± 0.37
UGCGAGCAAUAUUACGCAUA	-3.48 ± 0.43	-3 ± 0.36
UGCGAGCAAUAUUACGCCAG	-4.1 ± 0.42	
UGCGAGCAAUAUUACGCCUU		-1.7 ± 0.38
UGCGAGCAAUAUUACGCGAA	-3.08 ± 0.19	-2.19 ± 0.19
